Results as given in patent publication US20110311499A1 (University of Washington, published 2011).

T1: Tse3-His6 (purified Tse3, PA3484, with C-terminal hexahistidine tag) (Pseudomonas aeruginosa PAO1, UniProt Q9HYC5 1-408)
T1 construct: not shown: C-terminal hexahistidine tag (six His) from pET29b+
T1 sequence: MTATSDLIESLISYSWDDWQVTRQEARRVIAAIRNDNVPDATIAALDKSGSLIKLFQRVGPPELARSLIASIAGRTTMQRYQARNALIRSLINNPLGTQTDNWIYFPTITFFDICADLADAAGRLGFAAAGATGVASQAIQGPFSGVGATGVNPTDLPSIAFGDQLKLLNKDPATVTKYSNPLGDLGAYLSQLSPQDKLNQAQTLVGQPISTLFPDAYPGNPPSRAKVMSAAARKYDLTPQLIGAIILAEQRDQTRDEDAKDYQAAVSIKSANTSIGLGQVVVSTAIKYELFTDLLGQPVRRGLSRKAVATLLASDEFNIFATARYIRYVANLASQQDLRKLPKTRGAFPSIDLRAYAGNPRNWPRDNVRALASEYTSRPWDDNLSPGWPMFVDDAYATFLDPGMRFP

T2: Tse1-His6 (purified Tse1, PA1844, with C-terminal hexahistidine tag) (Pseudomonas aeruginosa PAO1, UniProt Q9I2Q1 1-154)
T2 construct: not shown: C-terminal hexahistidine tag (six His) from pET29b+
T2 sequence: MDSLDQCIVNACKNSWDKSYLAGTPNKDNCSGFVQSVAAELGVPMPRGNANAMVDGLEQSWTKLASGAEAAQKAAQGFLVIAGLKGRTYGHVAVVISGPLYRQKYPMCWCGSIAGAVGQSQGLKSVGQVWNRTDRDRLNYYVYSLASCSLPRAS


Columns and labels:
[1] = target: T1, Tse3-His6 (purified Tse3, PA3484, with …); assay: co-immunoprecipitation (FIG. 17a)
[2] = target: T2, Tse1-His6 (purified Tse1, PA1844, with …); assay: co-immunoprecipitation (FIG. 17a)

Binder	binding result [1]	binding result [2]
Tsi3-V (type VI secretion immunity protein 3 fused to the VSV-G epitope) (other) CTAESGVDFDKTLTHPNGLVVERPVGFDARRSAEGFRFDEGGKLRNPRQLEVQRQDAPPPPDLASRRLGDGEARYKVEEDDGGSAGSEYRLWAAKPAGARWIVVSASEQSEDGEPTFALAWALLERARLQ	binds	–
Tsi1-V (type VI secretion immunity protein 1 fused to the VSV-G epitope) (other) ADCTFTQLEIVPQFGSPNMFGGEDEHVRVMFSNEDPNDDNPDAFPEPPVYLADRDSGNDCRIEDGGIWSRGGVFLSQDGRRVLMHEFSGSSAELVSYDSATCKVVHREDISGQRWAVDKDGLRLGQKCSGESVDSCAKIVKRSLAPFCQTAKK	–	binds
